B1: Methylmalonic aciduria type A protein, mitochondrial (Homo sapiens), Q8IVH4 (parent)
chain: MPMLLPHPHQHFLKGLLRAPFRCYHFIFHSSTHLGSGIPCAQPFNSLGLHCTKWMLLSDGLKRKLCVQTTLKDHTEGLSDKEQRFVDKLYTGLIQGQRACLAEAITLVESTHSRKKELAQVLLQKVLLYHREQEQSNKGKPLAFRVGLSGPPGAGKSTFIEYFGKMLTERGHKLSVLAVDPSSCTSGGSLLGDKTRMTELSRDMNAYIRPSPTRGTLGGVTRTTNEAILLCEGAGYDIILIETVGVGQSEFAVADMVDMFVLLLPPAGGDELQGIKRGIIEMADLVAVTKSDGDLIVPARRIQAEYVSALKLLRKRSQVWKPKVIRISARSGEGISEMWDKMKDFQDLMLASGELTAKRRKQQKVWMWNLIQESVLEHFRTHPTVREQIPLLEQKVLIGALSPGLAADFLLKAFKSRD
partner: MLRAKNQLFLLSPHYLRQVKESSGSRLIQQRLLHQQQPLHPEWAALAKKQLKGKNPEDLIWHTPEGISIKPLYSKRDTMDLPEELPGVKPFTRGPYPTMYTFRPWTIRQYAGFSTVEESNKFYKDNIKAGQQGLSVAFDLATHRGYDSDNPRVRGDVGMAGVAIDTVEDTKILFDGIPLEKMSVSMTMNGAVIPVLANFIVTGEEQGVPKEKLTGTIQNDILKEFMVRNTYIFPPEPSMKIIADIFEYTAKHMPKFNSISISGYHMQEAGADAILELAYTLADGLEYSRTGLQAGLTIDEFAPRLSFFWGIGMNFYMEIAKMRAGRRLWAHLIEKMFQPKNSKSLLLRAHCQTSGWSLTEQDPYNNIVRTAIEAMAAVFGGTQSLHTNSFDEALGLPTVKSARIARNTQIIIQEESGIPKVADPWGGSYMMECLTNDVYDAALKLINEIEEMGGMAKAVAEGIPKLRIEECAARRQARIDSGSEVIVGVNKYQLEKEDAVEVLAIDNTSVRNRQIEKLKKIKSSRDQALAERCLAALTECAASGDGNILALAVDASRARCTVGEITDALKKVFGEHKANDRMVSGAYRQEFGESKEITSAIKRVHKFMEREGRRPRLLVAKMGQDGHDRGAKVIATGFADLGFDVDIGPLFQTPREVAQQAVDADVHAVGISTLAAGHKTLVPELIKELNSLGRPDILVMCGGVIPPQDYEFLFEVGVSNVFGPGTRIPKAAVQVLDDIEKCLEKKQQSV

Variants of: B1
Conditions: with muta_human MMUT
MPMLLPHPHQHFLKGLLRAPFRCYHFIFHSSTHLGSGIPCAQPFNSLGLHCTKWMLLSDGLKRKLCVQTTLKDHTEGLSDKEQRFVDKLYTGLIQGQRACLAEAITLVESTHSRKKELAQVLLQKVLLYHREQEQSNKGKPLAFRVGLSGPPGAGKSTFIEYFGKMLTERGHKLSVLAVDPSSCTSGRSLLGDKTRMTELSRDMNAYIRPSPTRGTLGGVTRTTNEAILLCEGAGYDIILIETVGVGQSEFAVADMVDMFVLLLPPAGGDELQGIKRGIIEMADLVAVTKSDGDLIVPARRIQAEYVSALKLLRKRSQVWKPKVIRISARSGEGISEMWDKMKDFQDLMLASGELTAKRRKQQKVWMWNLIQESVLEHFRTHPTVREQIPLLEQKVLIGALSPGLAADFLLKAFKSRD [G188R] was tested, and the “effect of a mutation on the interaction” value was “disrupting interaction strength”.

From IntAct's records for PubMed 20876572
